Target: von Willebrand factor (VWF) in plasma of patients with severe COVID-19, P04275

B1: Purified recombinant human ADAMTS13 (rADAMTS13, Takeda, Vienna, Austria) from a Chinese hamster ovary cell line (protein)
chain: AAGGILHLELLVAVGPDVFQAHREDTERYVLTNLNIGAELLRDPSLGAQFRVHLVKMVILTEPEGAPNITANLTSSLLSVCGWSQTINPEDDTDPGHADLVLYITRFDLELPDGNRQVRGVTQLGGACSPTWSCLITEDTGFDLGVTIAHEIGHSFGLEHDGAPGSGCGPSGHVMASDGAAPRAGLAWSPCSRRQLLSLLSAGRARCVWDPPRPQPGSAGHPPDAQPGLYYSANEQCRVAFGPKAVACTFAREHLDMCQALSCHTDPLDQSSCSRLLVPLLDGTECGVEKWCSKGRCRSLVELTPIAAVHGRWSSWGPRSPCSRSCGGGVVTRRRQCNNPRPAFGGRACVGADLQAEMCNTQACEKTQLEFMSQQCARTDGQPLRSSPGGASFYHWGAAVPHSQGDALCRHMCRAIGESFIMKRGDSFLDGTRCMPSGPREDGTLSLCVSGSCRTFGCDGRMDSQQVWDRCQVCGGDNSTCSPRKGSFTAGRAREYVTFLTVTPNLTSVYIANHRPLFTHLAVRIGGRYVVAGKMSISPNTTYPSLLEDGRVEYRVALTEDRLPRLEEIRIWGPLQEDADIQVYRRYGEEYGNLTRPDITFTYFQPKPRQAWVWAAVRGPCSVSCGAGLRWVNYSCLDQARKELVETVQCQGSQQPPAWPEACVLEPCPPYWAVGDFGPCSASCGGGLRERPVRCVEAQGSLLKTLPPARCRAGAQQPAVALETCNPQPCPARWEVSEPSSCTSAGGAGLALENETCVPGADGLEAPVTEGPGSVDEKLPAPEPCVGMSCPPGWGHLDATSAGEKAPSPWGSIRTGAQAAHVWTPAAGSCSVSCGRGLMELRFLCMDSALRVPVQEELCGLASKPGSRREVCQAVPCPARWQYKLAACSVSCGRGVVRRILYCARAHGEDDGEEILLDTQCQGLPRPEPQEACSLEPCPPRWKVMSLGPCSASCGLGTARRSVACVQLDQGQDVEVDEAACAALVRPEASVPCLIADCTYRWHVGTWMECSVSCGDGIQRRRDTCLGPQAQAPVPADFCQHLPKPVTVRGCWAGPCVGQGTPSLVPHEEAAAPGRTTATPAGASLEWSQARGLLFSPAPQPRRLLPGPQENSVQSSACGRQHLEPTGTIDMRGPGQADCAVAIGRPLGEVVTLRVLESSLNCSAGDMLLLWGRLTWRKMCRKLLDMTFSSKTNTLVVRQRCGRPGGGVLLRYGSQLAPETFYRECDMQLFGPWGEIVSPSLSPATSNAGGCRLFINVAPHARIAIHALATNMGAGTEGANASYILIRDTHSLRTTAFHGQQVLYWESESSQAEMEFSEGFLKAQASLRGQYWTLQSWVPEMQDPQSWKGKEGT
- Decrease (%) of VWF:CB 0 vs. 5 hrs, plasma B1: 65%
- Decrease (%) of VWF:CB 0 vs. 5 hrs, plasma B2: 60%
- Decrease (%) of VWF:CB 0 vs. 5 hrs, plasma B5: 65%
- Decrease (%) of VWF:CB 0 vs. 5 hrs, plasma B7: 52%
- Decrease (%) of VWF:CB 0 vs. 5 hrs, plasma B15: 44%
- Decrease (%) of VWF:CB 0 vs. 5 hrs, plasma B18: 63%
- Decrease (%) of VWF:CB 0 vs. 5 hrs, plasma S6: 33%
- Decrease (%) of VWF:CB 0 vs. 5 hrs, plasma S10: 60%
- Decrease (%) of VWF:CB 0 vs. 5 hrs, plasma S12: 53%
- Decrease (%) of VWF:CB 0 vs. 5 hrs, plasma S21: 44%
- Dimer relative to total multimer content (AUC %) at 0 hrs, plasma B1: 3.6 AUC %
- Dimer relative to total multimer content (AUC %) at 0 hrs, plasma B2: 5.4 AUC %
- Dimer relative to total multimer content (AUC %) at 0 hrs, plasma B5: 3.7 AUC %
- Dimer relative to total multimer content (AUC %) at 0 hrs, plasma B7: 5.3 AUC %
- Dimer relative to total multimer content (AUC %) at 0 hrs, plasma B15: 5.1 AUC %
- Dimer relative to total multimer content (AUC %) at 0 hrs, plasma B18: 3.6 AUC %
- Dimer relative to total multimer content (AUC %) at 0 hrs, plasma S6: 5.4 AUC %
- Dimer relative to total multimer content (AUC %) at 0 hrs, plasma S21: 4.9 AUC %
- Dimer relative to total multimer content (AUC %) at 5 hrs, plasma B1: 9.1 AUC %
- Dimer relative to total multimer content (AUC %) at 5 hrs, plasma B2: 11.3 AUC %
- Dimer relative to total multimer content (AUC %) at 5 hrs, plasma B5: 11 AUC %
- Dimer relative to total multimer content (AUC %) at 5 hrs, plasma B7: 10.1 AUC %
- Dimer relative to total multimer content (AUC %) at 5 hrs, plasma B15: 12.3 AUC %
- Dimer relative to total multimer content (AUC %) at 5 hrs, plasma B18: 7 AUC %
- Dimer relative to total multimer content (AUC %) at 5 hrs, plasma S6: 7 AUC %
- Dimer relative to total multimer content (AUC %) at 5 hrs, plasma S21: 8.5 AUC %
- Increase (%) of dimer 0 vs. 5 hrs, plasma B1: 253%
- Increase (%) of dimer 0 vs. 5 hrs, plasma B2: 209%
- Increase (%) of dimer 0 vs. 5 hrs, plasma B5: 297%
- Increase (%) of dimer 0 vs. 5 hrs, plasma B7: 191%
- Increase (%) of dimer 0 vs. 5 hrs, plasma B15: 241%
- Increase (%) of dimer 0 vs. 5 hrs, plasma B18: 194%
- Increase (%) of dimer 0 vs. 5 hrs, plasma S6: 130%
- Increase (%) of dimer 0 vs. 5 hrs, plasma S21: 173%
- UHMW VWF multimers by semi-automated electrophoresis, plasma B1, 10 IU/mL rADAMTS13: disappearance of all the abnormal UHMW VWF multimers
- UHMW multimer quantitation parameter after 5 h with 10 IU/mL rADAMTS13, plasma B1: to a level lower than that observed in control plasma (88%)
- UHMW multimer quantitation parameter before incubation, plasma B1 (home cast gels): the elevated UHMW multimer quantitation parameter of 124%
- VWF:CB (IU/mL) at 0 hrs, plasma B1, 1 IU/mL rADAMTS13: 3.09 IU/mL
- VWF:CB (IU/mL) at 0 hrs, plasma B2, 1 IU/mL rADAMTS13: 1.39 IU/mL
- VWF:CB (IU/mL) at 0 hrs, plasma B5, 1 IU/mL rADAMTS13: 2.46 IU/mL
- VWF:CB (IU/mL) at 0 hrs, plasma B7, 1 IU/mL rADAMTS13: 3.03 IU/mL
- VWF:CB (IU/mL) at 0 hrs, plasma B15, 1 IU/mL rADAMTS13: 2.44 IU/mL
- VWF:CB (IU/mL) at 0 hrs, plasma B18, 1 IU/mL rADAMTS13: 2.25 IU/mL
- VWF:CB (IU/mL) at 0 hrs, plasma S6, 1 IU/mL rADAMTS13: 2.19 IU/mL
- VWF:CB (IU/mL) at 0 hrs, plasma S10, 1 IU/mL rADAMTS13: 6.48 IU/mL
- VWF:CB (IU/mL) at 0 hrs, plasma S12, 1 IU/mL rADAMTS13: 3.01 IU/mL
- VWF:CB (IU/mL) at 0 hrs, plasma S21, 1 IU/mL rADAMTS13: 3.7 IU/mL
- VWF:CB (IU/mL) at 5 hrs, plasma B1, 1 IU/mL rADAMTS13: 2.02 IU/mL
- VWF:CB (IU/mL) at 5 hrs, plasma B2, 1 IU/mL rADAMTS13: 0.84 IU/mL
- VWF:CB (IU/mL) at 5 hrs, plasma B5, 1 IU/mL rADAMTS13: 1.61 IU/mL
- VWF:CB (IU/mL) at 5 hrs, plasma B7, 1 IU/mL rADAMTS13: 1.58 IU/mL
- VWF:CB (IU/mL) at 5 hrs, plasma B15, 1 IU/mL rADAMTS13: 1.08 IU/mL
- VWF:CB (IU/mL) at 5 hrs, plasma B18, 1 IU/mL rADAMTS13: 1.42 IU/mL
- VWF:CB (IU/mL) at 5 hrs, plasma S6, 1 IU/mL rADAMTS13: 0.73 IU/mL
- VWF:CB (IU/mL) at 5 hrs, plasma S10, 1 IU/mL rADAMTS13: 3.91 IU/mL
- VWF:CB (IU/mL) at 5 hrs, plasma S12, 1 IU/mL rADAMTS13: 1.6 IU/mL
- VWF:CB (IU/mL) at 5 hrs, plasma S21, 1 IU/mL rADAMTS13: 1.63 IU/mL
- mean VWF:CB of ten patient samples after 5 h incubation with 1 IU/mL rADAMTS13: decreased from 3.01 (SD: 1.37; SEM: 0.434) to 1.64 (SD: 0.89; SEM 0.28) IU/mL
- mean VWF:CB of ten patient samples before incubation with 1 IU/mL rADAMTS13: decreased from 3.01 (SD: 1.37; SEM: 0.434) to 1.64 (SD: 0.89; SEM 0.28) IU/mL
- reduction in VWF activity at 5 h, plasma B1, 10 IU/mL rADAMTS13: more than a 60% reduction at 5 h
- reduction in VWF activity within 5 h, plasma B1, 1 IU/mL rADAMTS13: within 5 h, VFW activity reduced by about 30%
- reduction of the UHMW multimer quantitation parameter after 5 h with 1 IU/mL rADAMTS13, plasma B1: reduced by 16% after 5 h of incubation with 1 IU/mL rADAMTS13
- reduction of the UHMW multimer quantitation parameter after 5 h with 10 IU/mL rADAMTS13, plasma B1: by 36% with 10 IU/mL rADAMTS13

Reference: patent US20230201319
